Consider four molecules from patent US20250109186A1.

Where a chain is given by its changes, count along the chain named. Like-named read-outs stand apart in the source and are kept apart here.

Assay [1] has as its target SARS-CoV-2 Omicron BA.1 spike ectodomain (residues 14-1207) with C-terminal His tag (SARS-CoV-2 Omicron BA.1 subvariant).
For assay [2], the target named is SARS-CoV-2 Omicron XBB.1.5 spike ectodomain (residues 14-1207) with C-terminal His tag (SARS-CoV-2 Omicron XBB.1.5 subvariant).
For assay [3], the target named is SARS-CoV-2 Omicron BA.1 RBD (residues 316-526) with C-terminal His tag (SARS-CoV-2 Omicron BA.1 subvariant). As to the kind of experiment: SPR (Biacore S200), CM5 chip, His-tagged proteins, 1:1 model.
The target of assay [4] is SARS-CoV-2 Omicron XBB.1.5 RBD (residues 315-525) with C-terminal His tag (SARS-CoV-2 Omicron XBB.1.5 subvariant). The assay is described as above.
The target in assay [5] is SARS-CoV-2 Omicron BA.1 RBD (residues 316-526) with C-terminal His tag (SARS-CoV-2 Omicron BA.1 subvariant).

B1: Nanosota-3A, HA- and His-double-tagged (VHH)
VHH: QVQLQESGGGLVQAGGSLRLSCAASGSIFSPNTMGWFRQALGKQREMVAVISSIASTQYANFVKGRFTITRDNTKNTVHLQMNSLIPEDTAVYYCYAVDKSQDYWGQGTQVTVSS
On to B1, for which the EC50 (read off the curve) – broadly, the concentration at which the effect is half-maximal – in assay [1] amounted to 0.1 µg/mL.

B2: Nanosota-3C with His6 tag and HA tag (VHH)
VHH: B1 VHH with M47G, V50F, Q58S, A60W, N61L, F62P
Consider B2, for which, in assay [2], the concentration for a half-maximal effect (EC50 (read off the curve)) was found to be 0.03 µg/mL. In addition, the results for the Kd in assay [3] and in assay [4] were 27.3 nM and 2.04 nM, respectively.

B3: Nanosota-3A with C-terminal His tag (VHH)
VHH: B1 VHH
As to B3, the Kd (usually a measure of binding affinity in units of concentration) in assay [5] was 17.3 nM.

B4: Nanosota-3B, HA- and His-double-tagged (VHH)
VHH: B1 VHH with V50F, Q58S
Consider B4, for which the EC50 (read off the curve) in assay [1] came out at 0.02 µg/mL.
